B1: vhhLib01-86 (VHH)
VHH: QVQLVESGGGLVQPGGSLRLSCAASGSIFSANHMGWYRQAPGKQRELVAAILSGGVTNYADSVKGRFTISRDNAKNTVYLQMNSLKPEDTAVYYCARGQVDTKYGYYYFDSWGQGTLVTVSS
notes: The entry as printed includes a doubled TLVTVSS and HHHHHH; also called vhbLib01-86
B2: vhhLib05-83 (VHH)
VHH: EVQLLESGGGLVQPGGSLRLSCAASGFTFSNYAMSWVRQAPGKQREWVSAISGSGGSTYYADSVKGRFTISRDNSKNTLYLQMNSLRAEDTAVYYCARLFLQQADGLYYYYAFDPWGQGTPVTVSS
notes: The entry as printed includes a doubled TLVTVSS-like stretch and HHHHHH
B3: vhhLib05-8 (VHH)
VHH: EVQLLESGGGLVQPGGSLRLSCAASGFTFSSYAMSWVRQAPGKQREWVSAISGSGGRTYYADSVKGRFTISRDNSKNTLYLQMNSLRAEDTAVYYCARHSIPVDGIVAFDHWGQGTLVTVSS
notes: The entry as printed includes a doubled TLVTVSS and HHHHHH; also called 13BHK
B4: vhhLib05-10 (VHH)
VHH: EVQLLESGGGLVQPGGSLRLSCAASGFTFSSYAMSWVRQAPGKQREWVSAISGSGGSTYYADSVKGRFTISRDNSKNTLYLQMNSLRAEDTAVYYCARVVKVDDIVHAFDIWGQGTLVTVSS
notes: The entry as printed includes a doubled TLVTVSS and HHHHHH
B5: vhhLib02-21 (VHH)
VHH: EVQLVESGGGLVQPGGSLRLSCAASGFTFSLYTMSWYRQAPGKQRELVSAISSGGSTYYADSVKGRFTISRDNSKNTLYLQMNSLRAEDTAVYYCARYDYSWWYFDLWGQGTLVTVSS
notes: The entry as printed includes HHHHHH
B6: vhhLib05-25 (VHH)
VHH: EVQLLESGGGLVQPGGSLRLSCAASGFTFSSYAMSWVRQAPGKQREWVSAISGSGGSTYYADSVKGRFTISRDNSKNTLYLQMNSLRAEDTAVYYCARHRQADGITYFDIWGQGTLVTVSS
notes: as for B4
B7: vhhLib05-14 (VHH)
VHH: EVQLLESGGGLVQPGGSLRLSCAASGFTFSSYAMSWVRQAPGKQREWVSAISGSGGSTYYADSVKGRFTISRDNSKNTLYLQMNSLRAEDTAVYYCARLSIVDVVTVFDVWGQGTLVTVSS
notes: as for B4
B8: vhhLib05-5 (VHH)
VHH: EVQLLESGGGLVQPGGSLRLSCAASGFTFSSYAMSWVRQAPGKQREWVSAISGSGGSTYYADSVKGRFTISRDNSKNTLYLQMNSLRAEDTAVYYCARLDYTDGINYFDYWGQGTLVTVSS
notes: as for B4
B9: vhhLib01-49 (VHH)
VHH: QVQLVESGGGLVQPGGSLRLSCAASGSIFSHNTMGWYRQAPGKQRELVAAINSGGSTNYADSVKGRFTISRDNAKNTVYLQMNSLKPEDTAVYYCARYIQTYTWGYFDYWGQGTLVTVSS
notes: as for B5
B10: vhhLib02-53 (VHH)
VHH: EVQLVESGGGLVQPGGSLRLSCAASGFTFSRYLMSWYRQAPGKQRELVGAIASGGVTYYADSVKGRFTISRDNSKNTLYLQMNSLRAEDTAVYYCARGNPSERLYYYFDYWGQGTLVTVSS
notes: The entry as printed includes HHHHHH; also called 06BHK
B11: vhhLib01-34 (VHH)
VHH: QVQLVESGGGLVQPGGSLRLSCAASGSIFSVNRMGWYRQAPGKQRELVAAIISGGATNYADSVKGRFTISRDNAKNTVYLQMNSLKPEDTAVYYCARRPAPNGRYHSWYAFDYWGQGTLVTVSS
notes: as for B5
B12: vhhLib05-49 (VHH)
VHH: EVQLLESGGGLVQPGGSLRLSCAASGFTFSSYAMSWVRQAPGKQREWVSAISGSGGSTYYADSVKGRFTISRDNSKNTLYLQMNSLRAEDTAVYYCARDTNQPYHGRYVYTYDFDVWGQGTLVTVSS
notes: also called 20BHK
B13: vhhLib01-3 (VHH)
VHH: QVQLVESGGGLVQPGGSLRLSCAASGSIFSFNLMGWYRQAPGKQRELVAAINSGGSTNYADSVKGRFTISRDNAKNTVYLQMNSLKPEDTAVYYCARDYTVYVSYYDGRFDYWGQGTLVTVSS
notes: as for B5
B14: vhhLib02-37 (VHH)
VHH: EVQLVESGGGLVQPGGSLRLSCAASGFTFSDYVMSWYRQAPGKQRELVSAIISGEDTYYADSVKGRFTISRDNSKNTLYLQMNSLRAEDTAVYYCARYVHKSTWYYFDHWGQGTLVTVSS
notes: The entry as printed includes HHHHHH; also called vhbLib02-37
B15: vhhLib01-75 (VHH)
VHH: QVQLVESGGGLVQPGGSLRLSCAASGSIFSSNRMGWYRQAPGKQRELVAAIFSGGHTNYADSVKGRFTISRDNAKNTVYLQMNSLKPEDTAVYYCARPVDWSGPFDIWGQGTLVTVSS
notes: as for B5
B16: vhhLib01-2 (VHH)
VHH: QVQLVESGGGLVQPGGSLRLSCAASGSIFSANHMGWYRQAPGKQRELVAAISSGGLTNYADSVKGRFTISRDNAKNTVYLQMNSLKPEDTAVYYCARHQTKIYNLHYYYFDYWGQGTLVTVSS
notes: as for B5
B17: vhhLib01-48 (VHH)
VHH: QVQLVESGGGLVQPGGSLRLSCAASGSIFSANIMGWYRQAPGKQRELVAAIVSGGYTNYADSVKGRFTISRDNAKNTVYLQMNSLKPEDTAVYYCARDQDAFDHVGQYFDHWGQGTLVTVSS
notes: as for B5
B18: vhhLib02-93 (VHH)
VHH: EVQLVESGGGLVQPGGSLRLSCAASGFTFSDYHMSWYRQAPGKQREPVSVINSGGYTYYADSVKGRFTISRDNSKNTLYLQMNSLRAEDTAVYYCARAQAAHYLYGYFDIWGQGTLVTVSS
notes: as for B5
B19: vhhLib02-91 (VHH)
VHH: EVQLVESGGGLVQPGGSLRLSCAASGFTVSDYHMSWYRQAPGKQRELVSVILSGGRTYYADSVKGRFTISRDNSKNTLYLQMNSLRAEDTAVYYCARADAIFPWFDVWGQGTLVTVSS
notes: The entry as printed includes HHHHHH; also called 09BHK
B20: vhhLib05-21 (VHH)
VHH: EVQLLESGGGLVQPGGSLRLSCAASGFTFSNYAMSWVRQAPGKQREWVSVISGNGSSTYYADSVKGRFTISRDNSKNTLYLQMNSLRAEDTAVYYCARLVQLPWVPISAFDVWGQGTLVTVSS
notes: The entry as printed includes a doubled TLVTVSS and HHHHHH; also called 16BHK
B21: vhhLib05-33 (VHH)
VHH: EVQLLESGGGLVQPGGSLRLSCAASGFTFSSYAMSWVRQAPGKQREWVSAISGSGGSTYYADSVKGRFTISRDNSKNTLYLQMNSLRAEDTAVYYCARLQGVQSDEVYYNYFDVWGQGTLVTVSS
notes: The entry as printed includes a doubled TLVTVSS and HHHHHH; also called vhbLib05-33
B22: vhhLib05-78 (VHH)
VHH: EVQLLESGGGLVQPGGSLRLSCAASGFTFSSYAMTWVRQAPGKQREWVSAISGSGGSTYYADSVKGRFTISRDNSKNTLYLQMNSLRAEDTAVYYCARLATHVDNGLGYNYFDVWGQGTLVTVSS
notes: as for B4
B23: vhhLib05-28 (VHH)
VHH: EVQLLESGGGLVQPGGSLRLSCAAAGFTFSSYAMSWVRQAPGKQREWVSAISGSGGSTYYADSVKGRFTISRDNSKNTLYLQMNSLRAEDTAVYYCARLSHNSQGTVVYNYFDIWGQGTLVTVSS
notes: as for B4
B24: vhhLib02-64 (VHH)
VHH: EVQLVESGGGLVQPGGSLRLSCAASGFTFSGYFMSWYRQAPGKQRELVSVINSGGSTYYADSVKGRFTISRDNSKNTLYLQMNSLRAEDTAVYYCARGRVATGGGYGFVHYFDVWGQGTLVTVSS
notes: as for B5

T1 sequence (peptide, as listed by the source): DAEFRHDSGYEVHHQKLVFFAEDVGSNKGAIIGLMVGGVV

This assay has as its target T1, Abeta peptide (40-amino acid Abeta peptide, SEQ ID NO: 1), biotinylated (human, N-terminal biotin or C-terminal lysine-linked biotin, separated from the peptide by a PEG6 linker).
T1 construct: Synthesized by Genscript; also called amyloid beta; test peptide
The assay is described as follows: BLI (Octet HTX), biotinylated Abeta on streptavidin sensors, 1 uM VHH, 1:1 fit. The protocol: Binding affinity was measured using Biolayer Interferometry (BLI) with a ForteBio Octet HTX instrument. Biotinylated antigen was loaded onto streptavidin biosensors at a concentration of 100 nM in kinetics buffer (PBS+1% BSA). The binding experiments were performed with the following steps: 1) baseline in kinetics buffer for 30 seconds, 2) loading of antigen for 180 seconds, to achieve a loading response of at least 1 nm, 3) baseline for 60 seconds, 4) association of 1 μM VHH for 300 seconds, and 5) dissociation into kinetics buffer for 180 seconds. Curves were fit to a 1:1 binding model using the ForteBio software. A negative control was included in all plates, which was un-transfected mammalian cells subjected to the same purification process, to account for the effect of any carryover protein contaminants from cell culture.
A general note: BLI is a label-free optical method that tracks binding on a fibre tip over time.
Consider B1, for which binding was characterised by a dissociation constant (Kd) of 430 nM; the koff – broadly, the rate constant with which the complex falls apart – amounted to 0.0033 s⁻¹; the kon – broadly, the second-order rate constant of association – amounted to 7670 M⁻¹ s⁻¹.

For B2, the Kd (in general, the concentration at which binding is half-saturated) turned out to be 292 nM; the koff is 0.00112 s⁻¹; the kon was determined as 3830 M⁻¹ s⁻¹.

For the molecule B3, binding was characterised by a dissociation constant (Kd) of 25.4 nM, the koff is 0.000269 s⁻¹ and the kon came to 10600 M⁻¹ s⁻¹.

In turn, B4 returned a Kd of 176 nM, a koff of 0.00127 s⁻¹ and a kon of 7170 M⁻¹ s⁻¹.

B5 gave a Kd of 244 nM, a koff of 0.000724 s⁻¹ and a kon of 2970 M⁻¹ s⁻¹.

Regarding B6, the Kd was found to be 23.9 nM, the koff was 0.000337 s⁻¹ and the kon turned out to be 14100 M⁻¹ s⁻¹.

For the molecule B7, the Kd was 39.9 nM, the koff came to 0.000443 s⁻¹ and the kon is 11100 M⁻¹ s⁻¹.

In the case of B8, the affinity, expressed as Kd, was 189 nM; the koff came to 0.000882 s⁻¹; the kon was determined as 4660 M⁻¹ s⁻¹.

As for B9, the Kd came to 116 nM, the koff was 0.000734 s⁻¹ and the kon was determined as 6320 M⁻¹ s⁻¹.

As for B10, binding was put at a Kd of 42.6 nM, the koff amounted to 0.000447 s⁻¹ and the kon was found to be 10500 M⁻¹ s⁻¹.

The molecule B11 registered a Kd of 367 nM, a koff of 0.00268 s⁻¹ and a kon of 7320 M⁻¹ s⁻¹.

The molecule B12 returned a Kd of 5.3 nM, a koff of 6.73e-05 s⁻¹ and a kon of 12600 M⁻¹ s⁻¹.

The molecule B13 yielded a Kd of 239 nM, a koff of 0.00353 s⁻¹ and a kon of 14800 M⁻¹ s⁻¹.

In turn, B14 yielded a dissociation constant Kd of 328 nM, a koff of 0.00105 s⁻¹ and a kon of 3210 M⁻¹ s⁻¹.

B15 registered a Kd of 185 nM, a koff of 0.00324 s⁻¹ and a kon of 17500 M⁻¹ s⁻¹.

Take B16: binding was put at a Kd of 212 nM, the koff turned out to be 0.00632 s⁻¹ and the kon was 29800 M⁻¹ s⁻¹.

B17: the Kd is 153 nM, the koff was found to be 0.00333 s⁻¹ and the kon is 21800 M⁻¹ s⁻¹.

With B18, binding was put at a Kd of 469 nM, the koff was 0.00314 s⁻¹ and the kon was 6700 M⁻¹ s⁻¹.

B19: the Kd came out at 43.1 nM, the koff is 0.00046 s⁻¹ and the kon was determined as 10700 M⁻¹ s⁻¹.

Take B20: binding was put at a Kd of 104 nM, the koff is 0.00111 s⁻¹ and the kon came to 10700 M⁻¹ s⁻¹.

Molecule B21 showed a Kd of 633 nM, a koff of 0.00297 s⁻¹ and a kon of 4680 M⁻¹ s⁻¹.

Molecule B22 returned a Kd of 214 nM, a koff of 0.00133 s⁻¹ and a kon of 6200 M⁻¹ s⁻¹.

As to B23, binding was put at a Kd of 114 nM, the koff stood at 0.000725 s⁻¹ and the kon worked out at 6370 M⁻¹ s⁻¹.

In the case of B24, the Kd was 210 nM, the koff amounted to 0.0029 s⁻¹ and the kon is 13800 M⁻¹ s⁻¹.

Values taken from US20230365667A1 (Merck Sharp & Dohme, published 2023).
